Measured values taken from US20180196057A1 (VENTANA MEDICAL SYSTEMS, published 2018).
Substitutions are numbered along the chain they refer to. Values belong to the binder of their own block, whether it stands above or below them.

Columns and labels:
human pro-epiregulin [1] = target: T1, human pro-epiregulin (human, UniProt O14944 30-169); assay: IHC on FFPE carcinoma cell lines and colorectal cancer cases (OptiView DAB)
T1 construct: Endogenous protein in FFPE tissue sections, xenografts and cell lysates (IHC, Western blot); also called EREG; pro-EREG
T1 sequence: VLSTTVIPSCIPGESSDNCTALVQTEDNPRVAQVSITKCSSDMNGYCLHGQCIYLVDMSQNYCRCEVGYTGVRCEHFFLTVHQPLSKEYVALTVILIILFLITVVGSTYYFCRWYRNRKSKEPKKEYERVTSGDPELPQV
Experimental: (§1) All assay optimization were performed on human non-small cell lung carcinoma (NSCLC) (NCI-H1975; NCI-H1650; H460; NCI-HCC827; H2228; Calu-3; H820), breast (MCF7; A431) carcinoma cell lines and colorectal cancer tissues. Stained slides for the tested conditions were evaluated by a trained pathologist and the optimal staining conditions were determined based on the staining intensity, percentage of positive cells and the level of non-specific (background) staining.
(§2) The assay performance of EREG/AREG IHC assays were evaluated on 8 colorectal cancer cases kindly provided by Dr. Paul Waring. Specimens were immunohistochemically stained for EREG expression with clone J5H1L1 and for AREG expression with J111H1L10 on a VENTANA BenchMark XT IHC/ISH instrument.

human pro-epiregulin [2] = target: T1, human pro-epiregulin; assay: recombinant antibodies screened for binding to human pro-epiregulin by IHC
human amphiregulin = target: T2, human amphiregulin (human, UniProt P15514 20-252); assay: IHC on FFPE carcinoma cell lines and colorectal cancer cases (OptiView DAB)
T2 construct: Endogenous protein in FFPE tissue sections and cell lysates (IHC, Western blot); also called AREG; pro-AREG
T2 sequence: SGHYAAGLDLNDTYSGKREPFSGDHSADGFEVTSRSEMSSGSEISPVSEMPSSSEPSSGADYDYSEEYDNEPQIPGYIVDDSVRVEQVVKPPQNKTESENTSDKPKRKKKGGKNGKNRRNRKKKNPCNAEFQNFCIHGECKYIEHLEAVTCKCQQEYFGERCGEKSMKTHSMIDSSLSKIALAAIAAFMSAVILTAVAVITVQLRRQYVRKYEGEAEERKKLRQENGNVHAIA
Experimental: as §1, §2

B1: anti-human pro-epiregulin monoclonal antibody J5H1L1 (antibody, V domains shown)
VH: QSVEESGGRLVTPGTPLTLTCTVSGFSLSRYGMSWVRQAPGKGLEYIGSINRTAYTYYATWAKGRFTISRTSTTVDLRMTSLTTEDTATYFCARGLTYGGSDYDYDDALWGPGTLVTVSS
VL: QVLTQTPSSVSAAVGGTVTINCQASQSVYKNKNLAWYQQKPGQPPKLLIYRASTLASGVSSRFKGSGSGTQFTLTISGVQCADAATYYCQGEFSCSTFDCILFGGGTEMVVK
notes: also called clone J5H1L1; EREG J5H1L1
binding result (human pro-epiregulin [1]): binds

B2: anti-human pro-epiregulin monoclonal antibody J89H12L3 (antibody, V domains shown)
VH: KSVEESGGRLVTPGTPLTLTCTVSGIDLSTFAMAWVRQAPGKGLEYIGFISLSDATYYATWAKGRFTISKSSSTTVDLKIITPTAEDTATYFCARVVGDSSGYPNTFHPWGPGTLVTVSS
VL: QVLTQTPSPVSAAVGGTVTINCQASQSIHNSDFLAWYQQKPGQPPKLLIYRASKLPSGVPSRFKGSGSGTQFTLTISDLECDDAATYYCQGTYYSGGWYFTFGGGTEVVVK
notes: also called clone J89H12L3
binding result (human pro-epiregulin [2]): binds

Next, values leading:

binding result (human pro-epiregulin [2]): binds
B3: anti-human pro-epiregulin monoclonal antibody J89H12L8 (antibody, V domains shown)
VH: B2 VH
VL: B2 VL with S27N
notes: also called clone J89H12L8

binding result (human amphiregulin): binds
B4: anti-human amphiregulin monoclonal antibody J111H1L10 (antibody, V domains shown)
VH: QSLEESRGGLIKPGGTLTLTCTVSGFSLSSYAISWVRQAPGNGLEWIGFIVGSSGSAYYASWAKSRSTITRDTNLNTVTLKMTSLTAADTATYFCAKGLYSGGNYWGPGTLVTVSS
VL: AVLTQTPSPVSAAVGGTVSISCQSSQSVDENNYLSWFQQKPGQPPKLLIYRASTLESGVPSRFSGSGSGTQFTLTVSGVQCDDAATYYCLGGYSGYSDDGFGGGTEVVVK
notes: also called clone J111H1L10; AREG J111H1L10
